Residue numbers refer to the chain shown, from its start. Entries after “also recorded” stand apart in the source; their conditions may differ. Values belong to the molecule of their own block, whether it stands above or below them.
Key:
hCLDN-5 [1] = molecular target: T1, hCLDN-5 (Homo sapiens, UniProt O00501); test: Western blotting operability, HT-1080/hCLDN-5 lysate; type: binding; conditions: SDS-PAGE under reducing condition, antibody concentration 10 μg/mL, FIG. 5
T1 construct: expressed in transfected cells; host or cells: HT-1080 human fibrosarcoma cells infected with a pCX4pur-derived retrovirus (HT-1080/hCLDN-5)
T1 sequence (O00501 1-218): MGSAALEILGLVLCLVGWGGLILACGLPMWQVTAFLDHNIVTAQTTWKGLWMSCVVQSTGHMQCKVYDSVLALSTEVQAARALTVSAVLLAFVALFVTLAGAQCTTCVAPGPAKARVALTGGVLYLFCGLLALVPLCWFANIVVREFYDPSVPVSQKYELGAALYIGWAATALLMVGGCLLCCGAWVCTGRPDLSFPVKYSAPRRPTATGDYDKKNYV
Protocol: FIG. 5 illustrates western blotting images showing the CLDN-5 primary structure recognizability of the anti-CLDN-5 antibodies obtained in Example 3-6). The primary antibodies used are shown at the top of the images, and the used cells are shown under the primary antibodies. The names of proteins represented by bands are shown on the left side of the images.
Cell lysates were prepared from HT-1080/mock and HT-1080/hCLDN-5 obtained in Example 1-2), and the lysates were separated by SDS-PAGE under a reducing condition. By using the antibodies (antibody concentration: 10 μg/mL) obtained in Example 1 as primary antibodies, western blotting was performed according to the conventional method. As primary antibodies, commercial monoclonal antibodies (4C3C2, Invitrogen, 35-2500) recognizing the C-terminal of CLDN-5 were used as positive control, and β actin antibodies (Sigma Aldrich, A1978) were used as loading control. The results are illustrated in FIG. 5.

hCLDN-5 [2] = test: Epitope analysis by hCLDN-5/hCLDN-1 chimeric CLDN (FACS), loop assignment; type: binding, human; conditions: antibody concentration 5 μg/mL, hCLDN-5/hCLDN-1 chimeras
1-1-5 = molecular target: T2, 1-1-5 (Homo sapiens, UniProt O00501, A34S/A72N/D37G/E76T/F35Y/G26A/H38D/H61Q/K48E/L36A/M29Q/M62I/Q31R/T33Y/T45A/T46M/T75S/V32I/V56S/V70L/W47Y/Y67F); test: Epitope analysis FACS, chimeric protein 1-1-5; type: binding; conditions: antibody concentration 5 μg/mL; first extracellular loop substituted with hCLDN-1
T2 construct: expressed in transfected cells; host or cells: retrovirus-infected cells (pCX4pur)
T2 sequence (O00501 1-218 G26A/M29Q/Q31R/V32I/T33Y/A34S/F35Y/L36A/D37G/H38D/T45A/T46M/W47Y/K48E/V56S/H61Q/M62I/Y67F/V70L/A72N/T75S/E76T): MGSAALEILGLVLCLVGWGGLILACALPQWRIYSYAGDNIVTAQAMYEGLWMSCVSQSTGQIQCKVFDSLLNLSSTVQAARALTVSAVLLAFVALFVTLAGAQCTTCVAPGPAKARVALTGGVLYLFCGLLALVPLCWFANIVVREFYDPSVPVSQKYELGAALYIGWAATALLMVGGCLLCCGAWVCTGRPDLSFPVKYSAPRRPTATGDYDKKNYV

hCLDN-5 [3] = test: Epitope analysis by hCLDN-5/mCLDN-5 chimeric CLDN (D68E, T75A, S151T, TM; FACS); type: binding, human; conditions: antibody concentration 5 μg/mL, mutants D68E
5-5-1 = molecular target: T3, 5-5-1 (Homo sapiens, UniProt O00501, A162Q/K157R/L160F/Q156A/S151M/S155N/V152T); test: Epitope analysis FACS, chimeric protein 5-5-1; type: binding; conditions: antibody concentration 5 μg/mL; second extracellular loop substituted with hCLDN-1
T3 construct: expressed in transfected cells; host or cells: retrovirus-infected cells (pCX4pur)
T3 sequence (O00501 1-218 S151M/V152T/S155N/Q156A/K157R/L160F/A162Q): T1 sequence (O00501 1-218) with S151M, V152T, S155N, Q156A, K157R, L160F, A162Q

MDCKII/hCLDN-5 = test: TEER of CLDN-5 compulsory expression system, MDCKII/hCLDN-5; type: cell-based, human; conditions: MDCKII/hCLDN-5, FIG. 7B
[4] = tested on: blood-brain barrier simulation system; test: Material permeability of blood-brain barrier simulation system (monkey BBB kit); type: cell-based; conditions: 12 hours after addition, FIG. 13
ZO-1 = ZO-1 localization by immunostaining in blood-brain barrier simulation system; type: cell-based; conditions: monkey BBB kit, 12 hours after addition, FIG. 14
mCLDN-5 = molecular target: T4, mCLDN-5 (Mus musculus, UniProt O54942); test: Evaluation of CLDN specificity by FACS, mCLDN-5-expressing cells; type: binding; conditions: hybridoma culture supernatant as primary antibody, FIG. 1B
T4 construct: expressed in transfected cells; host or cells: retrovirus-infected cells
T4 sequence (O54942 1-218): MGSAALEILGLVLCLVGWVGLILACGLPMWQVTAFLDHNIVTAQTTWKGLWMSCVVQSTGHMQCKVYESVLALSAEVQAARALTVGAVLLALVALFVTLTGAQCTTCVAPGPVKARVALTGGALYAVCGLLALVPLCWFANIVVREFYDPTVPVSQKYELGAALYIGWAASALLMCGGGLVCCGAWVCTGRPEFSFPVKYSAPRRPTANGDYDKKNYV

CLDN-5 = CLDN-5 localization by immunostaining in blood-brain barrier simulation system; type: cell-based; conditions: monkey BBB kit, 12 hours after addition, FIG. 14
1-5-5 = molecular target: T5, 1-5-5 (Homo sapiens, UniProt O00501, A34S/D37G/F35Y/G26A/H38D/K48E/L36A/M29Q/Q31R/T33Y/T45A/T46M/V32I/W47Y); test: Epitope analysis FACS, chimeric protein 1-5-5; type: binding; conditions: antibody concentration 5 μg/mL; N-terminal half of first extracellular loop substituted with hCLDN-1
T5 construct: expressed in transfected cells; host or cells: retrovirus-infected cells (pCX4pur)
T5 sequence (O00501 1-218 G26A/M29Q/Q31R/V32I/T33Y/A34S/F35Y/L36A/D37G/H38D/T45A/T46M/W47Y/K48E): T2 sequence (O00501 1-218 G26A/M29Q/Q31R/V32I/T33Y/A34S/F35Y/L36A/D37G/H38D/T45A/T46M/W47Y/K48E/V56S/H61Q/M62I/Y67F/V70L/A72N/T75S/E76T) with S56V, Q61H, I62M, F67Y, L70V, N72A, S75T, T76E

B3: R2: rat anti-CLDN-5 monoclonal antibody, IgG2a/K; VH SEQ ID NO: 11, VL SEQ ID NO: 12; example of antibody F (antibody, V domains shown)
VH: QVQLKESGPGLVQPSQTLSLTCTVSGLSLIRNSVSWIRQPPGKGLEWMGVIWSNGGTEYNSTVKSRLSISRDTSKNQVFLKMNSLQTEDSAMFFCARTPDGYYPYFDYWGQGVMVTVSS
VL: DIVLTQSPATLSVTPGESVSLSCRASQGISTSIHWYQQKSNESPRLLIRYASQSISRIPSRFSGSGSGTDFTLTINGVESEDLSVYYCQQSYNLPLTFGSGTKLEI
modifications: R2 VH; R2 VL
extracellular loop of CLDN-5 recognized (hCLDN-5 [2]): first extracellular loop | recognition of 1-1-5 (1-1-5): incapable of recognizing | portion of hCLDN-5 recognized (hCLDN-5 [3]): domain around the 68th amino acid from the N-terminal present in the first extracellular loop | recognition of 5-5-1 (5-5-1): capable of recognizing | recognition of 1-5-5 (1-5-5): capable of recognizing

B4: M11: mouse anti-CLDN-5 monoclonal antibody, IgG2b/K; VH SEQ ID NO: 3, VL SEQ ID NO: 4; example of antibody B (antibody, V domains shown)
VH: QVQLKQSGPGLVQPSQSLSITCTVSGFSLIRYGVHWVRQSPGKGLEWLGVKWSGGSTDYNGAFKSRLSISKDNSKSQVFFKMNSLQADDTAIYYCARGLDGYYVPDVWGTGTSVTVS
VL: DIVMTQSHKFMSTSVGDRVSITCKASQDVSTNVAWYQQKPGQSPTLLIYWASTRHTGVPDRFTGSGSGTDYTLTISSVQAEDLALYYCQQHYSTPLTFGAGTKLELRR
modifications: M11 VH; M11 VL
extracellular loop of CLDN-5 recognized (hCLDN-5 [2]): first extracellular loop | recognition of 1-1-5 (1-1-5): incapable of recognizing | portion of hCLDN-5 recognized (hCLDN-5 [3]): domain around the 68th amino acid from the N-terminal present in the first extracellular loop | recognition of 5-5-1 (5-5-1): capable of recognizing | recognition of 1-5-5 (1-5-5): incapable of recognizing

B6: R3: rat anti-CLDN-5 monoclonal antibody, IgG2a/K; VH SEQ ID NO: 13, VL SEQ ID NO: 14; example of antibody G (antibody, V domains shown)
VH: EVQLVESGGGLVQPGRSLKLSCAASGFTFSDYYMAWVRQAPKKGLEWVASISYEGRNTYYGDSVKGRFTISRDNAKSTLYLQMKSLRSEDTATYYCTRHPRRYFDYWGQGVMVTVSS
VL: DIVMTQSPSSLAVSAGETVTMNCRSSQSLFSSGDQKKFLAWYQQKPGQSPKLLISLASTRESGVPDRFIGSGSGTDFTLTINNMQAEDLAIYYCQQHYDIPYTFGAGTKLEL
modifications: R3 VH; R3 VL
extracellular loop of CLDN-5 recognized (hCLDN-5 [2]): second extracellular loop | recognition of 1-1-5 (1-1-5): capable of recognizing | portion of hCLDN-5 recognized (hCLDN-5 [3]): domain around the 151st amino acid from the N-terminal present in the second extracellular loop | recognition of 5-5-1 (5-5-1): incapable of recognizing

Continued, in another order:

recognition of linear peptide (western blotting operability) (hCLDN-5 [1]): weakly recognized | recognition of 1-1-5 (1-1-5): capable of recognizing | recognition of 5-5-1 (5-5-1): incapable of recognizing
B1: R14: rat anti-CLDN-5 monoclonal antibody, IgG2a/K; VH SEQ ID NO: 21, VL SEQ ID NO: 22; example of antibody K (antibody, V domains shown)
VH: QVTLKESGPGILQPSHTLSLTCSFSGFSLSTYGMGVSWIRQPSGKGLEWLASIWWNGRTYTNPSLMSRLTVSKDTSTNQAFLRVTSVETADTATYYCAHTPYDYSNLGWFTYWGQGTLVTVSS
VL: DILMTQTPSSQAVSAGEKVTVSCKSSQSLLYSGDQKSYLAWYQQKPGQSPKLLIYLASTRKSGVPDRFIGSGSGTDFTLTISSVQAEDLADYYCQQHYTYPLTFGSGTKLEI
modifications: R14 VH; R14 VL
extracellular loop of CLDN-5 recognized (hCLDN-5 [2]): second extracellular loop | portion of hCLDN-5 recognized (hCLDN-5 [3]): three-dimensional structure created by the transmembrane domain of hCLDN-5; also recorded: domain around the 151st amino acid from the N-terminal present in the second extracellular loop

recognition of 1-1-5 (1-1-5): capable of recognizing | recognition of 5-5-1 (5-5-1): incapable of recognizing | binding capacity to mCLDN-5 (mCLDN-5): extremely low
B2: M48: mouse anti-CLDN-5 monoclonal antibody, IgG3/K; VH SEQ ID NO: 9, VL SEQ ID NO: 10; example of antibody E (antibody, V domains shown)
VH: QAYLQQSGAELVRPGASVKMSCKASGYTFTSYNMHWVKKTRRQGLEWIGAISPGNGNTSYNQKFKGKATLTVDKSSSTAYMQLSSLTSEDSAVYFCARDDGYYGALDYWGQGTSVTVSS
VL: B3 VL
modifications: M48 VH; M48 VL
reduction in TEER (MDCKII/hCLDN-5): greatly reducing TEER | 4 kDa FITC-dextran permeability of the blood-brain barrier simulation system [4]: exhibited an activity of improving | extracellular loop of CLDN-5 recognized (hCLDN-5 [2]): second extracellular loop | localization properties of ZO-1 (ZO-1): did not change | portion of hCLDN-5 recognized (hCLDN-5 [3]): domain around the 151st amino acid from the N-terminal present in the second extracellular loop | localization properties of CLDN-5 in the intercellular space (CLDN-5): reduced

recognition of 1-1-5 (1-1-5): capable of recognizing | recognition of 5-5-1 (5-5-1): incapable of recognizing
B5: M23: mouse anti-CLDN-5 monoclonal antibody, IgG2b/K; VH SEQ ID NO: 5, VL SEQ ID NO: 6; example of antibody C (antibody, V domains shown)
VH: EVQLQQSGPVLVKPGPSVMISCKASGFTFTDYYMHWVKQSHGKSLEWIGLVYPYNGGTDYNQKFKGKATLTVDTSSSTAYMELNSLTSEDSAVYYCARCLYDGLYFYAMDYWGQGTSVTVSS
VL: DIVMSQSPSSLAVSAGEKVTMTCKSSQSLLNSRARKNYLAWYQQKAGQSPKLLMYWASTRESGVPDRFTASGSGTDFTLTISSVQAEDLAVFYCKQSYNLPWTFGGGTKLEIKR
modifications: M23 VH; M23 VL
extracellular loop of CLDN-5 recognized (hCLDN-5 [2]): second extracellular loop | portion of hCLDN-5 recognized (hCLDN-5 [3]): domain around the 151st amino acid from the N-terminal present in the second extracellular loop
